Positions count from the first letter of the chain named. Values belong to the binder of their own block, whether it stands above or below them.
Columns and labels:
[1] = molecular target: T1, ΔE2 version of human CD33 (CD33^ΔE2) expressed on cells (human, UniProt P20138 1-364); experiment: flow cytometry on REH subline expressing CD33^ΔE2
T1 construct: Expressed on engineered REH sublines; also called CD33ΔE2 isoform

[2] = molecular target: T2, human full-length CD33 (CD33^FL) expressed on cells (human, UniProt P20138 18-364); experiment: flow cytometry on REH subline expressing CD33^FL
T2 construct: Expressed on engineered REH (or RS4;11) sublines
T2 sequence (P20138 18-364 limits assumed): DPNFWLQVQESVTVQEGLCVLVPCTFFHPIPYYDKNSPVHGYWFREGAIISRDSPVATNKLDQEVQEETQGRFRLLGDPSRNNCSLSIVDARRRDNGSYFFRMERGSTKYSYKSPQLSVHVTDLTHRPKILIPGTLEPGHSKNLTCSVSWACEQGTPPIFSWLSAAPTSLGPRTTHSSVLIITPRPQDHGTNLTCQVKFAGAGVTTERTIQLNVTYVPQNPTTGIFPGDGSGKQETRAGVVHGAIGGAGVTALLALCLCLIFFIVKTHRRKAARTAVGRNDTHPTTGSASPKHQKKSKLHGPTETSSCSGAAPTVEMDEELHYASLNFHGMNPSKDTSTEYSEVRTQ

[3] = molecular target: T2, human full-length CD33 (CD33^FL) …; experiment: flow cytometry on REH cells, legend of FIG. 7
[4] = molecular target: T1, ΔE2 version of human CD33 (CD33^ΔE2) …; experiment: flow cytometry on REH cells expressing CD33^ΔE2
Source text: FIG. 6 illustrates flow cytometry binding assay characterization of CD33^ΔE2 -specific CD33 antibodies. […] Antibodies specific for CD33^ΔE2 have not previously been described reliably in the literature. The herein-described CD33^ΔE2 specific antibodies will be useful, including for determining expression profiles of this isoform across healthy and diseased individuals. REH=human CD33^neg lymphoid cells.

[5] = molecular target: T3, extracellular domain of CD33^FL with a 6-histidine-avidin tag (hsCD33-His-Avi) (human, UniProt P20138 18-256); experiment: Biacore SPR, value quoted from FIG. 4C
T3 construct: The Biacore text says only 'the corresponding soluble ectodomains'; it includes the native signal peptide and the His-Avi tag, and no limits are stated on it; also called soluble CD33^FL ectodomain; MDT000235
Source text: (§1) FIGS. 4A-4C illustrate the expression (FIGS. 4A, 4B) and characterization of two CD33^FL specific (8F5 and 5D12) and one CD33^ΔE2 specific (12B12) antibodies. Affinities for these antibodies (shown in FIG. 4C) were characterized by Biacore (Biacore, A&G Pharmaceutical, Inc., Columbia, MD) using purified antibodies and the corresponding soluble ectodomains.

[6] = molecular target: T3, extracellular domain of CD33^FL with a …; experiment: Biacore SPR, purified antibody and corresponding soluble ectodomain
Source text: as §1

[7] = molecular target: T2, human full-length CD33 (CD33^FL) …; experiment: flow cytometry on REH cells expressing CD33^FL
[8] = molecular target: T4, extracellular domain of CD33^ΔE2 with a 6-histidine-avidin tag (hsCD33_ΔE2-His-Avi) (human); experiment: Biacore SPR, purified antibody and corresponding soluble ectodomain
T4 construct: The Biacore text says only 'the corresponding soluble ectodomains'; also called soluble CD33^ΔE2 ectodomain; MDT000239
T4 chain: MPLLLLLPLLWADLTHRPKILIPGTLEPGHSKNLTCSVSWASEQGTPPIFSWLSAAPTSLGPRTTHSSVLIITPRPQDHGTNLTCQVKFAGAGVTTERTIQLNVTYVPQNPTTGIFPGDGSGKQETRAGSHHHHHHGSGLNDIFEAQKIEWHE
Source text: as §1

[9] = molecular target: T1, ΔE2 version of human CD33 (CD33^ΔE2) …; experiment: flow cytometry on engineered REH cells

- binding result [1]: binds
- binding result [2]: binds
B1: anti-CD33 antibody 2D5 (antibody, V domains shown)
VH: QVQLQQSGAELVRPGASVTLSCKASGYTFTDYDMHWVKQTPVHGLEWIGAIDPETGGTAYNQNFKGKAILTVDKSSRIAYMELRSLTSEDSAVFYCTSDYDYFGVWGTGTTVTVSS
VL: DIVMTQSQKFMSTSVGDRVSVTCKASQNVGTNVVWYHKKPGQSPKGLIYSASDRYSGVPDRFTGSGSGTDFTLTINNVQSEDLAEYFCQQYNIYPYTFGGGTKLEIKR
notes: the antibody was raised in mice

- binding result [3]: binds
- binding result [4]: binds
B2: anti-CD33 antibody 5E10.7 (antibody, V domains shown)
VH: QVQLQQPGAEFVKPGASVKLSCKASGYTFTSYWMQWVKQRPGQGLEWIGEIDSSDSYTNYNQKFKGMATLTVDRSSSTAYMQLSSLTSEDSAVYYCARSRPYDWFPYWGQGTLVTVST
VL: DIKMTQSPSSIYASLGERVTITCKASQDIKSYLSWYQQKPRKSPKTLIYYATTLADGVPSRFSGSGSGQDFSLTISSLESDDTATYYCLHHSESPWTFGGGTKLEIKR
notes: Mouse IgG1

- Kd [5]: 0.122 nM
- Kd [6]: 0.112 nM
B3: anti-CD33 antibody 5D12 (antibody, V domains shown)
VH: QVQLQQSGAEVVKPGASVKISCRASGYAFSNYWMNWVKQRPGKGLEWIGQIYPGNFNTDYNGQFKGKATLTVDKSSNTAYMQLSSLTSEDSAVYFCARFFDFGAYFTLDYWGQGTSVTVSS
VL: B2 VL with T22N, R41W, F71Y, S92G, G100E
notes: Mouse IgG2a

- Kd [6]: 8 nM
B4: anti-CD33 antibody 8F5 (antibody, mouse IgG2a, kappa, V domains shown)
VH: EVKLVESGGGLVQPGGSLKLSCAASGFTFSDFYMYWVRQTPEKRLEWVAFISNAGVTTYYPDTVEGRFTISRDNAKNTLYLQMSRLMSEDTAMYYCTKSDYDGAWFPYWGQGTLVTVSA
VL: DIVMSQSPSSLPVSVGEKVTLSCKSSQSLLYSRNQYNFLAWYQQRPGQSPKLLIYWASTRESGVPDRFTGSGSGTDFTLTISSVKAEDLAVYYCQQYYSYPYTFGGGTKLEIKR
notes: Mouse IgG2a

- binding result [4]: binds
- binding result [7]: binds
B5: anti-CD33 antibody 1H7 (antibody, V domains shown)
VH: QVQLQQSGAELVKPGASVKISCKASGYAFSNYWMNWVKQRPGKGLEWIGQINPGDGDTNYNGKFKGKATLTADKSSSTAYMQLSSLTSEDSAVYFCAREDRDYFDYWGQGTTLTVSS
VL: DIQMTQTTSSLSASLGDRVTISCRASQDINYYLNWYQQKPDGTVKLLIYYSSRLHSGVPSRFSGSGSGTDFSLTISNLEQEDIATYFCQQDDALPYTFGGGTKLEIKR
notes: Raised in mice; The entries include a secretion leader; also called CD33PAN antibody

- binding result [4]: binds
B6: anti-CD33 antibody 11D11 (antibody, V domains shown)
VH: EVNLVESGGGLVQSGRSLRLSCATSGFTFSDFYMEWVRQAPGKGLEWIAASRNKANDYTTEYKASVKGRFIVSRDTSQSILYLQMNALRAEDTAIYYCTRDTGPMDYWGQGTSVTVSS
VL: B5 VL with N30S, Y31N, S51T, F71Y, D91G, D92S, A93T, Y96P
notes: Mouse IgG1

- Kd [8]: 8 nM
B7: anti-CD33 antibody 12B12 (antibody, V domains shown)
VH: EVQLQQSGTVLARPGASVKMSCKASGYTFTTYWMHWIKQSPGQGLEWIGAIYPGNSDTSYNQKFKGKAKLTAVTSASTAYMELSSLTNEDSAVYYCEIYDGYHFIYWGQGTTLTVSS
VL: DIVMTQAAFSNPVTLGTSASISCRSSQSLLHSNGITYLYWYLQKPGQSPQLLIYQMSNLASGVPDRFSSSGSGTDFTLRISRVEAEDVGVYYCAQNLELPPTFGGGTKLEIKR
notes: Mouse IgG2b

- binding result [9]: binds
B8: anti-CD33 antibody 11D5 (antibody, V domains shown)
VH: EVQFQQSETVLARPGTSVKLSCKASGYTFTSYWMHWLKQRPGQGLEWIGAIYCGNSDTSYNQKFKGKAKLTAVTSATTAYMELSSLTNEDSAVYYCKIYDGYHFDYWGQGTTLTVSS
VL: B7 VL with S26N, Q27K
notes: Mouse IgG1

- binding result [4]: binds
- binding result [7]: no binding
B9: anti-CD33 antibody 7E7 (antibody, V domains shown)
VH: QVTLKESGPGILQPSQTLSLTCSFSGFSLNSYGMGIGWIRQPSGKGLEWLAHIWWDDNKYYKPDLKSRLTVSKDTSKNQVFLKIANVDTTDTATYFCARDGGYSLFAYWGQGTLVTVSV
VL: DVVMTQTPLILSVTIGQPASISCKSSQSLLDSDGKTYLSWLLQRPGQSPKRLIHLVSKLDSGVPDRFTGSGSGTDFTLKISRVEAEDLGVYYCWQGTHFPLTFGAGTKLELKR
notes: Mouse IgG1
